Source: article PMC4598982, “Impact of Cell-surface Antigen Expression on Target Engagement and Function of an Epidermal Growth Factor Receptor × c-MET Bispecific Antibody*” (The Journal of Biological Chemistry, 2015)

Biological target: the molecule itself
Experiment: split reporter (BiFC, NanoBiT); PathHunter enzyme fragment complementation in the c-MET homodimer U-2 OS cell line; recombinant human HGF serially diluted; 6 h at room temperature; lower levels with bivalent c-MET mAb, even lower levels with JNJ-61186372 and monovalent c-MET BsAbs

B1: c-MET(1–960) C-terminally fused to a complementary inactive fragment of β-galactosidase (receptor, UniProt P08581 25-960, looked up)
chain: ECKEALAKSEMNVNMKYQLPNFTAETPIQNVILHEHHIFLGATNYIYVLNEEDLQKVAEYKTGPVLEHPDCFPCQDCSSKANLSGGVWKDNINMALVVDTYYDDQLISCGSVNRGTCQRHVFPHNHTADIQSEVHCIFSPQIEEPSQCPDCVVSALGAKVLSSVKDRFINFFVGNTINSSYFPDHPLHSISVRRLKETKDGFMFLTDQSYIDVLPEFRDSYPIKYVHAFESNNFIYFLTVQRETLDAQTFHTRIIRFCSINSGLHSYMEMPLECILTEKRKKRSTKKEVFNILQAAYVSKPGAQLARQIGASLNDDILFGVFAQSKPDSAEPMDRSAMCAFPIKYVNDFFNKIVNKNNVRCLQHFYGPNHEHCFNRTLLRNSSGCEARRDEYRTEFTTALQRVDLFMGQFSEVLLTSISTFIKGDLTIANLGTSEGRFMQVVVSRSGPSTPHVNFLLDSHPVSPEVIVEHTLNQNGYTLVITGKKITKIPLNGLGCRHFQSCSQCLSAPPFVQCGWCHDKCVRSEECLSGTWTQQICLPAIYKVFPNSAPLEGGTRLTICGWDFGFRRNNKFDLKKTRVLLGNESCTLTLSESTMNTLKCTVGPAMNKHFNMSIIISNGHGTTQYSTFSYVDPVITSISPKYGPMAGGTLLTLTGNYLNSGNSRHISIGGKTCTLKSVSNSILECYTPAQTISTEFAVKLKIDLANRETSIFSYREDPIVYEIHPTKSFISGGSTITGVGKNLNSVSVPRMVINVHEAGRNFTVACQHRSNSEIICCTTPSLQQLNLQLPLKTKAFFMLDGILSKYFDLIYVHNPVFKPFEKPVMISMGNENVLEIKGNDIDPEAVKGEVLKVGNKSCENIHLHSEAVLCTVPNDLLKLNSELNIEWKQAISSTVLGKVIVQPDQNFTGLIAGVVSISTALLLLLGFFLWLKKRKQ
notes: signal peptide in the construct; membrane localisation of the construct was checked by flow cytometry; In the homodimer cell line two copies carry the two complementary β-gal fragments; also called hepatocyte growth factor receptor; HGF receptor; source: U-2 OS cells, stably transfected, on cells
EC50 of HGF for c-MET homodimerization: 3.21 nM
